Source: article doi:10.1101/2022.01.05.474964 (bioRxiv, 2022)

Biological target: the molecule itself
Test: SEC-MALS

B1: full-length human BicD2 isoform 2 (natural protein, UniProt Q8TD16-2 1-855, looked up)
chain: MSAPSEEEEYARLVMEAQPEWLRAEVKRLSHELAETTREKIQAAEYGLAVLEEKHQLKLQFEELEVDYEAIRSEMEQLKEAFGQAHTNHKKVAADGESREESLIQESASKEQYYVRKVLELQTELKQLRNVLTNTQSENERLASVAQELKEINQNVEIQRGRLRDDIKEYKFREARLLQDYSELEEENISLQKQVSVLRQNQVEFEGLKHEIKRLEEETEYLNSQLEDAIRLKEISERQLEEALETLKTEREQKNSLRKELSHYMSINDSFYTSHLHVSLDGLKFSDDAAEPNNDAEALVNGFEHGGLAKLPLDNKTSTPKKEGLAPPSPSLVSDLLSELNISEIQKLKQQLMQMEREKAGLLATLQDTQKQLEHTRGSLSEQQEKVTRLTENLSALRRLQASKERQTALDNEKDRDSHEDGDYYEVDINGPEILACKYHVAVAEAGELREQLKALRSTHEAREAQHAEEKGRYEAEGQALTEKVSLLEKASRQDRELLARLEKELKKVSDVAGETQGSLSVAQDELVTFSEELANLYHHVCMCNNETPNRVMLDYYREGQGGAGRTSPGGRTSPEARGRRSPILLPKGLLAPEAGRADGGTGDSSPSPGSSLPSPLSDPRREPMNIYNLIAIIRDQIKHLQAAVDRTTELSRQRIASQELGPAVDKDKEALMEEILKLKSLLSTKREQITTLRTVLKANKQTAEVALANLKSKYENEKAMVTETMMKLRNELKALKEDAATFSSLRAMFATRCDEYITQLDEMQRQLAAAEDEKKTLNSLLRMAIQQKLALTQRLELLELDHEQTRRGRAKAAPKTKPATPSVSHTCACASDRAEGTGLANQVFCSEKHSIYCD
With B1 the “stoichiometry N” value was 2.
